Laboratory results published in patent US9187553.

Molecular target: recombinant human FceRIa D2/D1 subunit (human) (UniProt P12319)
Test: ELISA, IgE captured by His-tagged receptor on Ni-treated plate

UniProt P12319, sequence (P12319 26-205): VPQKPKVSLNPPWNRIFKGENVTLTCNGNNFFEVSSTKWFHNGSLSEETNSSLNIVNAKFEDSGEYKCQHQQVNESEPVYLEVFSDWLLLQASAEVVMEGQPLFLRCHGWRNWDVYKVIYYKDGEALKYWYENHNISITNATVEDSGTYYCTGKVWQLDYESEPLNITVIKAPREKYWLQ

human myeloma IgE (BED) (antibody) was tested, and the OD signal at 50 ng/ml was 1.2 OD.
